Results from US20220064248A1, “PHARMACEUTICAL COMPOSITION INCLUDING INSULIN AND GLUCAGON” (HANMl PHARM. CO., LTD, priority 2018, published 2022).
Bridges are numbered along the chain shown (N, C = ends). Where no end group is shown, it is not given here. [ ]: non-standard residue; d: D form. Aib = CC(C)(N)C(=O)O

What follows are substances tested against glucagon receptors (Homo sapiens, UniProt P47871) (assay: In vitro activity of glucagon analogs relative to native glucagon). Conditions: relative to native glucagon (SEQ ID NO: 1).
Chain of glucagon receptors (P47871 26-477): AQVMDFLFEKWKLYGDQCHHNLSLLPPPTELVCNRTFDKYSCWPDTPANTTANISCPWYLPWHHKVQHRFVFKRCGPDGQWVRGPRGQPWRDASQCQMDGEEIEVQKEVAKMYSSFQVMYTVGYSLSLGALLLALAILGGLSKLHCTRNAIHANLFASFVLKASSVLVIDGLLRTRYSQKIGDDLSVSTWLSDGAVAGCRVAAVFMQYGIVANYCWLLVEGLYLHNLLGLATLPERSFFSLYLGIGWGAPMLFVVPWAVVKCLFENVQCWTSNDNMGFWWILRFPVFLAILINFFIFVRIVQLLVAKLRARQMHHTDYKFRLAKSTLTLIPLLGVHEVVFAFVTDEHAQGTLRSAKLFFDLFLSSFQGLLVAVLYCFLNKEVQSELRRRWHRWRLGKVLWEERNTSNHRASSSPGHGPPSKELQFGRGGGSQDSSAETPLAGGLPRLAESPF
Format: cell-based
Method: The glucagon analogs were synthesized with reference to Korean Patent Publication Nos. 10-2016-0082482, 10-2017-003466, and 10-2018-0002544, and pl and in vitro activity thereof were measured.
“-SQGTFTSDYSKYLDECRAKEFVQWLMNT (lactam 15-19; also: name begins with '-' (N-terminal residue not shown)) [SEQ ID NO: 32]” was tested, and the “In vitro activity (relative activity to SEQ ID NO: 1, %)” value was 0.7%.
In the case of “HSQGTFTSDYSKYLDCDRAQDFVQWLMNT (glucagon derivative) [SEQ ID NO: 2]”, the “In vitro activity (relative activity to SEQ ID NO: 1, %)” value is reported as 0.6%.
In the case of “HSQGTFTSDYSKYLDCERAQDFVQWLMNT (glucagon derivative) [SEQ ID NO: 3]”, the “In vitro activity (relative activity to SEQ ID NO: 1, %)” value is reported as 6.1%.
“HSQGTFTSDYSKYLDSCDAQDFVQWLMNT (glucagon derivative) [SEQ ID NO: 4]” was tested, and the “In vitro activity (relative activity to SEQ ID NO: 1, %)” value was <0.1%.
“HSQGTFTSDYSKYLDSCEADDFVQWLMNT (glucagon derivative) [SEQ ID NO: 6]” was tested, and the “In vitro activity (relative activity to SEQ ID NO: 1, %)” value was <0.1%.
For “HSQGTFTSDYSKYLDSCEAQDFVQWLMNT (glucagon derivative) [SEQ ID NO: 5]”, the “In vitro activity (relative activity to SEQ ID NO: 1, %)” value was 0.3%.
In the case of “WXQGTFTSDYSKCLDERRAKDFVQWLMNT (W[Aib]QGTFTSDYSKCLDERRAKDFVQWLMNT; lactam 16-20) [SEQ ID NO: 30]”, the “In vitro activity (relative activity to SEQ ID NO: 1, %)” value is reported as 0.3%.
For “WXQGTFTSDYSKYCDERRAKEFVQWLMNT (W[Aib]QGTFTSDYSKYCDERRAKEFVQWLMNT; lactam 16-20) [SEQ ID NO: 34]”, the “In vitro activity (relative activity to SEQ ID NO: 1, %)” value was 0.2%.
“WXQGTFTSDYSKYLDECRAKDFVQWLMNT (W[Aib]QGTFTSDYSKYLDECRAKDFVQWLMNT; lactam 16-20) [SEQ ID NO: 26]” was tested, and the “In vitro activity (relative activity to SEQ ID NO: 1, %)” value was 1.0%.
“WXQGTFVSDYSKYLDECRAKDFVQWLMNT (W[Aib]QGTFVSDYSKYLDECRAKDFVQWLMNT; lactam 16-20) [SEQ ID NO: 28]” was tested, and the “In vitro activity (relative activity to SEQ ID NO: 1, %)” value was <0.1%.
For “YSQGTFTSDYSKYLDSCEADDFVQWLMNT (glucagon derivative) [SEQ ID NO: 7]”, the “In vitro activity (relative activity to SEQ ID NO: 1, %)” value was <0.1%.
With “YXQGTFCSDYSKYLDERRAKDFVQWLMNT (Y[Aib]QGTFCSDYSKYLDERRAKDFVQWLMNT; lactam 16-20) [SEQ ID NO: 41]” the “In vitro activity (relative activity to SEQ ID NO: 1, %)” value was 45.2%.
With “YXQGTFCSDYSKYLDERRAKEFVQWLMNT (Y[Aib]QGTFCSDYSKYLDERRAKEFVQWLMNT; lactam 16-20) [SEQ ID NO: 38]” the “In vitro activity (relative activity to SEQ ID NO: 1, %)” value was 167.3%.
“YXQGTFCSDYSKYLDSRRAQDFVQWLMNT (Y[Aib]QGTFCSDYSKYLDSRRAQDFVQWLMNT) [SEQ ID NO: 42]” was tested, and the “In vitro activity (relative activity to SEQ ID NO: 1, %)” value was 37.9%.
For “YXQGTFTSDCSKYLDERRAKEFVQWLMNT (Y[Aib]QGTFTSDCSKYLDERRAKEFVQWLMNT; lactam 16-20) [SEQ ID NO: 36]”, the “In vitro activity (relative activity to SEQ ID NO: 1, %)” value was 9.9%.
With “YXQGTFTSDCSKYLDSRRAQDFVQWLMNT (Y[Aib]QGTFTSDCSKYLDSRRAQDFVQWLMNT) [SEQ ID NO: 43]” the “In vitro activity (relative activity to SEQ ID NO: 1, %)” value was 1.6%.
In the case of “YXQGTFTSDYSCYLDSRRAQDFVQWLMNT (Y[Aib]QGTFTSDYSCYLDSRRAQDFVQWLMNT) [SEQ ID NO: 13]”, the “In vitro activity (relative activity to SEQ ID NO: 1, %)” value is reported as 5.2%.
For “YXQGTFTSDYSKCLDEKRAKEFVQWLMNT (Y[Aib]QGTFTSDYSKCLDEKRAKEFVQWLMNT; lactam 16-20) [SEQ ID NO: 24]”, the “In vitro activity (relative activity to SEQ ID NO: 1, %)” value was 58.0%.
With “YXQGTFTSDYSKCLDERRAKDFVQWLMNT (Y[Aib]QGTFTSDYSKCLDERRAKDFVQWLMNT; lactam 16-20) [SEQ ID NO: 29]” the “In vitro activity (relative activity to SEQ ID NO: 1, %)” value was 61.3%.
In the case of “YXQGTFTSDYSKYCDEKRAKEFVQWLMNT (Y[Aib]QGTFTSDYSKYCDEKRAKEFVQWLMNT; lactam 16-20) [SEQ ID NO: 23]”, the “In vitro activity (relative activity to SEQ ID NO: 1, %)” value is reported as 76.8%.
With “YXQGTFTSDYSKYCDERRAKEFVQWLMNT (Y[Aib]QGTFTSDYSKYCDERRAKEFVQWLMNT; lactam 16-20) [SEQ ID NO: 35]” the “In vitro activity (relative activity to SEQ ID NO: 1, %)” value was 17.7%.
“YXQGTFTSDYSKYLCEKRAKEFVQWLMNT (Y[Aib]QGTFTSDYSKYLCEKRAKEFVQWLMNT; lactam 16-20) [SEQ ID NO: 19]” was tested, and the “In vitro activity (relative activity to SEQ ID NO: 1, %)” value was 12.1%.
In the case of “YXQGTFTSDYSKYLCEKRAQDFVVWLMNT (Y[Aib]QGTFTSDYSKYLCEKRAQDFVVWLMNT) [SEQ ID NO: 15]”, the “In vitro activity (relative activity to SEQ ID NO: 1, %)” value is reported as 1.1%.
“YXQGTFTSDYSKYLDCKRAKEFVQWLMNT (Y[Aib]QGTFTSDYSKYLDCKRAKEFVQWLMNT; lactam 17-21) [SEQ ID NO: 31]” was tested, and the “In vitro activity (relative activity to SEQ ID NO: 1, %)” value was 6.3%.
“YXQGTFTSDYSKYLDCKRAKEFVQWLMNT [SEQ ID NO: 14] (Y[Aib]QGTFTSDYSKYLDCKRAKEFVQWLMNT; not fully specified (bridges); also: lactam ring between underlined residues, places not shown)” was tested, and the “In vitro activity (relative activity to SEQ ID NO: 1, %)” value was 18.1%.
For “YXQGTFTSDYSKYLDCRRAQVFVQWLMRT (Y[Aib]QGTFTSDYSKYLDCRRAQVFVQWLMRT) [SEQ ID NO: 16]”, the “In vitro activity (relative activity to SEQ ID NO: 1, %)” value was 4.2%.
With “YXQGTFTSDYSKYLDCVRAQDFVQWLMRT (Y[Aib]QGTFTSDYSKYLDCVRAQDFVQWLMRT) [SEQ ID NO: 17]” the “In vitro activity (relative activity to SEQ ID NO: 1, %)” value was 23.2%.
For “YXQGTFTSDYSKYLDECRAKEFVQWLMNT (Y[Aib]QGTFTSDYSKYLDECRAKEFVQWLMNT; lactam 16-20) [SEQ ID NO: 20]”, the “In vitro activity (relative activity to SEQ ID NO: 1, %)” value was 299.7%.
With “YXQGTFTSDYSKYLDEKCAKEFVQWLMNT [SEQ ID NO: 11] (Y[Aib]QGTFTSDYSKYLDEKCAKEFVQWLMNT; not fully specified (bridges); also: lactam ring between underlined residues, places not shown)” the “In vitro activity (relative activity to SEQ ID NO: 1, %)” value was 4.6%.
“YXQGTFTSDYSKYLDEKCAKEFVQWLMNT [SEQ ID NO: 21] (Y[Aib]QGTFTSDYSKYLDEKCAKEFVQWLMNT; lactam 16-20)” was tested, and the “In vitro activity (relative activity to SEQ ID NO: 1, %)” value was 57.8%.
For “YXQGTFTSDYSKYLDEKRAKCFVQWLMNT (Y[Aib]QGTFTSDYSKYLDEKRAKCFVQWLMNT; lactam 16-20) [SEQ ID NO: 25]”, the “In vitro activity (relative activity to SEQ ID NO: 1, %)” value was 46.9%.
In the case of “YXQGTFTSDYSKYLDEKRAKEFVQWLMNTC (Y[Aib]QGTFTSDYSKYLDEKRAKEFVQWLMNTC; lactam 16-20) [SEQ ID NO: 12]”, the “In vitro activity (relative activity to SEQ ID NO: 1, %)” value is reported as 56.3%.
With “YXQGTFTSDYSKYLDEKRCKEFVQWLMNT (Y[Aib]QGTFTSDYSKYLDEKRCKEFVQWLMNT; lactam 16-20) [SEQ ID NO: 22]” the “In vitro activity (relative activity to SEQ ID NO: 1, %)” value was 147.8%.
For “YXQGTFTSDYSKYLDERRAKEFVQWLMNTC (Y[Aib]QGTFTSDYSKYLDERRAKEFVQWLMNTC; lactam 16-20) [SEQ ID NO: 37]”, the “In vitro activity (relative activity to SEQ ID NO: 1, %)” value was 225.5%.
For “YXQGTFTSDYSKYLDSCDADDFVVWLINT (Y[Aib]QGTFTSDYSKYLDSCDADDFVVWLINT) [SEQ ID NO: 10]”, the “In vitro activity (relative activity to SEQ ID NO: 1, %)” value was <0.1%.
With “YXQGTFTSDYSKYLDSCDAQDFVQWLINT (Y[Aib]QGTFTSDYSKYLDSCDAQDFVQWLINT) [SEQ ID NO: 8]” the “In vitro activity (relative activity to SEQ ID NO: 1, %)” value was <0.1%.
In the case of “YXQGTFTSDYSKYLDSCDAQDFVVWLINT (Y[Aib]QGTFTSDYSKYLDSCDAQDFVVWLINT) [SEQ ID NO: 9]”, the “In vitro activity (relative activity to SEQ ID NO: 1, %)” value is reported as <0.1%.
With “YXQGTFTSDYSKYLDSRRACDFRLWLMNT (Y[Aib]QGTFTSDYSKYLDSRRACDFRLWLMNT) [SEQ ID NO: 18]” the “In vitro activity (relative activity to SEQ ID NO: 1, %)” value was <0.1%.
With “YXQGTFTSDYSKYLDSRRAQDFVQWLMNT (X non-natural residue; glucagon derivative; (2) Xaa is aminoisobutyric acid (Aib)) [SEQ ID NO: 33]” the “In vitro activity (relative activity to SEQ ID NO: 1, %)” value was 108.2%.
“YXQGTFTSDYSKYLDSRRAQDFVQWLMNTC (glucagon derivative; (2) Xaa is aminoisobutyric acid (Aib)) [SEQ ID NO: 44]” was tested, and the “In vitro activity (relative activity to SEQ ID NO: 1, %)” value was 75.4%.
With “YXQGTFVSDCSKYLDERRAKDFVQWLMNT (Y[Aib]QGTFVSDCSKYLDERRAKDFVQWLMNT; lactam 16-20) [SEQ ID NO: 39]” the “In vitro activity (relative activity to SEQ ID NO: 1, %)” value was 3.7%.
With “YXQGTFVSDYSKYLDECRAKDFVQWLMNT (Y[Aib]QGTFVSDYSKYLDECRAKDFVQWLMNT; lactam 16-20) [SEQ ID NO: 27]” the “In vitro activity (relative activity to SEQ ID NO: 1, %)” value was 93.6%.
For “YXQGTFVSDYSKYLDERRAKDFVQWLMNTC (Y[Aib]QGTFVSDYSKYLDERRAKDFVQWLMNTC; lactam 16-20) [SEQ ID NO: 40]”, the “In vitro activity (relative activity to SEQ ID NO: 1, %)” value was 40.8%.
